From the supplement of paper PMC10201428
± gives the standard deviation of the averaged measurements.

Legend:
[1] = test system: VchCAST RNA-guided transposition machinery (E. coli BL21(DE3) host, lacZ target); experiment: relative integration efficiency (T-LR orientation) vs wild-type transposon end (log2 (normalized fold change)); transposon end mutated: right end (5 bp flank + 75 bp right end); higher = more efficient transposition
Method in brief: (§1)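 Each barcoded pool, 1549 left-end or 1849 right-end transposon variants in a pUC57 mini-transposon donor, went into E. coli BL21(DE3) with a T7-driven effector plasmid (CRISPR array, tniQ-cas8-cas7-cas6, tnsA-tnsB-tnsC). Plates contained 0.1 mM IPTG and were held at 37°C for 18 h. Input plasmids and genomic integration junctions were PCR-amplified and read by Illumina sequencing, with two biological output replicates and four reference barcodes. Relative integration efficiency is the fold change of output over input barcode abundance, normalised to the reference barcodes and log-transformed.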

[2] = test system: VchCAST RNA-guided transposition machinery (E. coli BL21(DE3) host, lacZ target); experiment: relative integration efficiency (T-RL orientation) vs wild-type transposon end (log2 (normalized fold change)); transposon end mutated: right end (5 bp flank + 75 bp right end); higher = more efficient transposition
Method in brief: as §1

Sequence | relative integration efficiency (log2) [1] | relative integration efficiency (log2) [2]
ACATTTGTTGATACAACCATAAAGTGATATTTACAACCATAAAGTGATATTTATCAGTGGGTATTTAACTATAACGCTCTGATCATAGTCAGACCAACATTGCTACGACCCGTATTCGCACCGACAC | 2.91 ± 0.034 | -0.497 ± 0.26
ACATTTGTTGATACAACCATAAAATCATCATTACACCCATAAATTGATAATTATCACACCCAATTTAACTATAACGCTCTGATCATAGTCAGACCAACATTGCTACGACCCGTATTCGCACCGACAC | 0.617 ± 0.13 | -3.16 ± 0.25
ACATTTGTTGATACAACCATATATTGATATCTCCACCCATAAATTGATATTGCTCACAACCATAAAATGATAATTACTCTGATCATAGTCAGACCAACATTGCTACGACCCGTATTCGCACCGACAC | -0.381 ± 0.46 | -0.537 ± 0.12
ACATTTGTTGATACAACCATATATTGATATCTCCAACCATATATTGATATCTCTCACAACCATATATTGATATCTCCTCTGATCATAGTCAGACCAACATTGCTACGACCCGTATTCGCACCGACAC | -0.402 ± 0.094 | -0.859 ± 0.14
ACATTTGTTGATACAACCATATATTGATATCTCCAACCATATATTGATATCTCTCACAACCATAAAATGATAATTACTCTGATCATAGTCAGACCAACATTGCTACGACCCGTATTCGCACCGACAC | -0.08 ± 0.5 | -0.562 ± 0.043
ACATTTGTTGATACAACCATAAAGTGATATTTACAACCATATATTGATATCTCTCAGTGGGTATTTAACTATAACGCTCTGATCATAGTCAGACCAACATTGCTACGACCCGTATTCGCACCGACAC | 2.6 ± 0.17 | -1.32 ± 0.41
ACATTTGTTGATACAACCATAAAATGATAATTACACCCATCAATTGATAATTATCCCACCCCATTTAACTATAACGCTCTGATCATAGTCAGACCAACATTGCTACGACCCGTATTCGCACCGACAC | 1.52 ± 0.21 | -2.54 ± 0.3
ACATTTGTTGATACAACCATAAAATGATAATTACACCCATAAATTGATAATTATCACTGGGATAAATTGATATTGCCTCTGATCATAGTCAGACCAACATTGCTACGACCCGTATTCGCACCGACAC | 2.07 ± 0.067 | -0.4 ± 0.027
ACATTTGTTGATACACCCATAAATTGATATTGCCAACCATAAAATGATAATTATCACAACCATAAAATGATAATTACTCTGATCATAGTCAGACCAACATTGCTACGACCCGTATTCGCACCGACAC | -0.058 ± 0.3 | -0.123 ± 0.11
ACATTTGTTGATACACCCATAAATTGATAATTACAACCATATATTGATATCTCTCACAACCATAAGTTGATATTTTCTCTGATCATAGTCAGACCAACATTGCTACGACCCGTATTCGCACCGACAC | 0.798 ± 0.25 | 0.516 ± 0.26
ACATTTGTTGATACAACCATAAAATGATAATTACACCCATAAATTGATAATTATCACACCCATAAATTGATATTGCCTCTGACAACCATAAAATGATAATTATCATAGTCAGACCAAGCACCGACAC | -0.0996 ± 0.32 | -0.213 ± 0.28
ACATTTGTTGATACAACCATAAAATGATAATTACACCCATAAATTGATAATTATCAACAACATAAATTGATATTGCCTCTGATCATAGTCAGACCAACATTGCTACGACCCGTATTCGCACCGACAC | 1.36 ± 0.2 | -0.911 ± 0.21
ACATTTGTTGATACAACCATAAAATGATAATTACCCCCATAAATTGATAATTATCCCACCCAATTTAACTATAACGCTCTGATCATAGTCAGACCAACATTGCTACGACCCGTATTCGCACCGACAC | 2.06 ± 0.12 | -1.15 ± 0.18
ACATTTGTTGATACAACCATAAAATGATAATTACACCCATAAATTGATAATTATCACACCCATAAATTGATATTGCCTCTTCATGCAGATTTGAACAGTTTCAAATGCTGATTTTCAGCACCGACAC | 0.372 ± 0.19 | 0.29 ± 0.31
ACATTTGTTGATACAACCATAAAAGGATCATTACACCCATCAATTGATAATTATCCCACCCAATTTAACTATAACGCTCTGATCATAGTCAGACCAACATTGCTACGACCCGTATTCGCACCGACAC | 0.119 ± 0.061 | -2.99 ± 0.16
